Experiments:
[1] = test system: 20 kDa Phakopsora pachyrhizi protein; assay: Far-western assay for P. pachyrhizi proteins that bind the peptides; type: binding; details: protein from germinated urediniospores; bait protein, ZmCKX1 antibody detection
Description: A far-western assay was used to identify P. pachyrhizi proteins that bind to the disclosed peptides (3, 35). To prepare fungal proteins, MOS-2008 urediniospores were germinated and grown for 4 h. Fungal tissues were ground in liquid nitrogen and suspended in phosphate buffer (pH. 6.5) containing 0.1 M mannitol and Tween-20. Fungal debris was separated from soluble material by centrifugation, and the protein concentration of the soluble fraction was determined. Equal amounts of protein were loaded into the wells of an acrylamide gel, separated by SDS-PAGE, and then transferred to PVDF membrane. The membranes were incubated with a bait protein that consisted of the ZmCKX1 scaffold alone, ZmCKX1-Sp2, or ZmCKX1-Sp39. The unbound bait proteins were washed off of the blot, and the blot was incubated with ZmCKX1 polyclonal antibody (1), followed by a second antibody, anti-rabbit IgG conjugated to alkaline phosphatase (Promega, Madison, Wis.).

[2] = test system: Phakopsora pachyrhizi urediniospores; assay: In vitro inhibition of urediniospore germ tube growth by ZmCKX1-peptides; type: cell-based; details: for decrease of germ tube growth in comparison to water: 230 μM (highest concentration); for decrease of germ tube growth in comparison to water / reduction of average germ tube length in comparison to water: 8 h incubation; for reduction of average germ tube length in comparison to water: 58 μM
Description: Purified ZmCKX1-Sp2 and ZmCKX1-Sp39 peptides were assessed in vitro for the ability to inhibit urediniospore germination. A 25-μl water droplet containing 300 freshly harvested MOS-2008 urediniospores was incubated on a glass slide in the presence of either ZmCKX1-Sp2 or ZmCKX1-Sp39. Control treatments included urediniospores incubated in water or in the presence of ZmCKX1 alone. Germ tube growth was visualized over time and quantified by image capture and analyses as described previously.

[3] = test system: Phakopsora pachyrhizi urediniospores; assay: Inhibition of soybean leaf infection (rust lesion formation) by ZmCKX1-peptides; type: in vivo; details: 7 days of incubation; 115 μM; water close to 50%
Description: Young, fully expanded leaves were excised from soybean plants (Williams 82) and used for assessment of ZmCKX1-peptide inhibition. Two 10-μl droplets of each ZmCKX1-peptide-urediniospore mixture or control treatment were applied to the upper surface of a single leaf. Each droplet contained 50 urediniospores mixed with either ZmCKX1-Sp2 or ZmCKX1-Sp39 at a final concentration of 115 μM. Control treatments included urediniospores in water or mixed with 115 μM ZmCKX1. Droplet treatments were replicated four times.
Inoculated leaves were incubated for 8 h before rinsing away droplets and drying as described previously. Leaves were transferred to sealed Petri dishes and incubated in a growth chamber at 22° C. and 90% RH, under a 12 h light/dark cycle. The percentage of inoculations that produced rust lesions was recorded at 3 to 4 day intervals for 27 days.

Molecule | detection of fungal protein band in far-western blot [1] | decrease of germ tube growth in comparison to water [2] [%] | germ tube growth inhibition ([2]; all concentrations except 230 μM, 8 h) | inoculations that produced lesions [3] [%] | reduction of average germ tube length in comparison to water [2] [%]
ZmCKX1: recombinant maize cytokinin oxidase scaffold without peptide insert, control (protein) LAAGTPALGDDRGRPWPASLAALALDGKLRTDSNATAAASTDFGNITSALPAAVLYPSSTGDLVALLSAANSTPGWPYTIAFRGRGHSLMGQAFAPGGVVVNMASLGDAAAPPRINVSADGRYVDAGGEQVWIDVLRASLARGVAPRSWNDYLYLTVGGTLSNAGISGQAFRHGPQISNVLEMDVITGHGEMVTCSKQLNADLFDAVLGGLGQFGVITRARIAVEPAPARARWVRFVYTDFAAFSADQERLTAPRPGGGGASFGPMSYVEGSVFVNQSLATDLANTGFFTDADVARIVALAGERNATTVYSIEATLNYDNATAAAAAVDQELASVLGTLSYVEGFAFQRDVAYAAFLDRVHGEEVALNKLGLWRVPHPWLNMFVPRSRIADFDRGVFKGILQGTDIVGPLIVYPLNKSMWDDGMSAATPSEDVFYAVSLLFSSVAPNDLARLQEQNRRILRFCDLAGIQYKTYLARHTDRSDWVRHFGAAKWNRFVEMKNKYDPKRLLSPGQDIFN | absent | 26 | less than 10% | – | –
ZmCKX1-Sp39: peptide Sp39 fused to the C-terminus of the scaffold protein ZmCKX1, expressed in Pichia pastoris (protein) LAAGTPALGDDRGRPWPASLAALALDGKLRTDSNATAAASTDFGNITSALPAAVLYPSSTGDLVALLSAANSTPGWPYTIAFRGRGHSLMGQAFAPGGVVVNMASLGDAAAPPRINVSADGRYVDAGGEQVWIDVLRASLARGVAPRSWNDYLYLTVGGTLSNAGISGQAFRHGPQISNVLEMDVITGHGEMVTCSKQLNADLFDAVLGGLGQFGVITRARIAVEPAPARARWVRFVYTDFAAFSADQERLTAPRPGGGGASFGPMSYVEGSVFVNQSLATDLANTGFFTDADVARIVALAGERNATTVYSIEATLNYDNATAAAAAVDQELASVLGTLSYVEGFAFQRDVAYAAFLDRVHGEEVALNKLGLWRVPHPWLNMFVPRSRIADFDRGVFKGILQGTDIVGPLIVYPLNKSMWDDGMSAATPSEDVFYAVSLLFSSVAPNDLARLQEQNRRILRFCDLAGIQYKTYLARHTDRSDWVRHFGAAKWNRFVEMKNKYDPKRLLSPGQDIFNYNKPSFQDHSVI | specifically interacted with a fungal protein approximately 20 kDa in size | 91 | – | 16 | 36
ZmCKX1-Sp2: peptide Sp2 fused to the C-terminus of the scaffold protein ZmCKX1, expressed in Pichia pastoris (protein) LAAGTPALGDDRGRPWPASLAALALDGKLRTDSNATAAASTDFGNITSALPAAVLYPSSTGDLVALLSAANSTPGWPYTIAFRGRGHSLMGQAFAPGGVVVNMASLGDAAAPPRINVSADGRYVDAGGEQVWIDVLRASLARGVAPRSWNDYLYLTVGGTLSNAGISGQAFRHGPQISNVLEMDVITGHGEMVTCSKQLNADLFDAVLGGLGQFGVITRARIAVEPAPARARWVRFVYTDFAAFSADQERLTAPRPGGGGASFGPMSYVEGSVFVNQSLATDLANTGFFTDADVARIVALAGERNATTVYSIEATLNYDNATAAAAAVDQELASVLGTLSYVEGFAFQRDVAYAAFLDRVHGEEVALNKLGLWRVPHPWLNMFVPRSRIADFDRGVFKGILQGTDIVGPLIVYPLNKSMWDDGMSAATPSEDVFYAVSLLFSSVAPNDLARLQEQNRRILRFCDLAGIQYKTYLARHTDRSDWVRHFGAAKWNRFVEMKNKYDPKRLLSPGQDIFNMLESHAWPPRAI | specifically interacted with a fungal protein approximately 20 kDa in size | 94 | – | 13 | 52
